The values below come from patent US11155596B2, “Polypeptide” (AFFIBODY AB, priority 2016, dated 2021).

In experiment [1] the target is human PD-L1 Fc Chimera (R&D Systems, cat. no. 156-B7-100) (human) (UniProt Q9NZQ7). The experiment can be described thus: ELISA screen, 40 pM hPD-L1.
For experiment [2], the target named is PD-L1 on PD-L1 expressing cells (IFNg-stimulated THP-1 cells; MDA-MB-231 cells) (Homo sapiens (Human)) (UniProt Q9NZQ7). The experiment in a line: FACS, MDA-MB-231 cells, 0.625 µg/ml; negative control (buffer) 69.
For experiment [3] the target is unchanged. The experiment in a line: FACS, MDA-MB-231 cells, 1 µg/ml, positive control.

human PD-L1 Fc Chimera (R&D Systems, cat. no. 156-B7-100) (human), sequence (Q9NZQ7 19-239, change not shown): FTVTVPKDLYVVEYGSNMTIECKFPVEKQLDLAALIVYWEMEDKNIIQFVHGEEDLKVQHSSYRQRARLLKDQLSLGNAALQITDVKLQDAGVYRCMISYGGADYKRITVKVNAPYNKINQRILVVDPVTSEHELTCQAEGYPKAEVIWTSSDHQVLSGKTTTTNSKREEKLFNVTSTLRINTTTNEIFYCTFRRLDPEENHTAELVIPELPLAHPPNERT

The substance “fusion protein ABD with no Z-fusion partner (periplasmic negative control) (from UniProt P19909)” showed an ELISA response (average) in experiment [1] of 0.051 AU.
On to “ipilimumab (Yervoy, Bristol-Myers Squibb, bought) (antibody)”, for which the MFI in experiment [2] came out at 64.
As for “mouse anti-PD-L1 antibody (R&D Systems, cat. no. MAB1561) (tool reagent)”, in experiment [3], the MFI came out at 610.
